Measured values from article doi:10.1101/2020.02.11.943977.

Target: Replication protein A (RPA heterotrimer) (human) (UniProt P27694+P15927+P35244)
Assay: competition

Sequence of Replication protein A (RPA heterotrimer) (human) (P27694 whole entry, chain 1 of 3): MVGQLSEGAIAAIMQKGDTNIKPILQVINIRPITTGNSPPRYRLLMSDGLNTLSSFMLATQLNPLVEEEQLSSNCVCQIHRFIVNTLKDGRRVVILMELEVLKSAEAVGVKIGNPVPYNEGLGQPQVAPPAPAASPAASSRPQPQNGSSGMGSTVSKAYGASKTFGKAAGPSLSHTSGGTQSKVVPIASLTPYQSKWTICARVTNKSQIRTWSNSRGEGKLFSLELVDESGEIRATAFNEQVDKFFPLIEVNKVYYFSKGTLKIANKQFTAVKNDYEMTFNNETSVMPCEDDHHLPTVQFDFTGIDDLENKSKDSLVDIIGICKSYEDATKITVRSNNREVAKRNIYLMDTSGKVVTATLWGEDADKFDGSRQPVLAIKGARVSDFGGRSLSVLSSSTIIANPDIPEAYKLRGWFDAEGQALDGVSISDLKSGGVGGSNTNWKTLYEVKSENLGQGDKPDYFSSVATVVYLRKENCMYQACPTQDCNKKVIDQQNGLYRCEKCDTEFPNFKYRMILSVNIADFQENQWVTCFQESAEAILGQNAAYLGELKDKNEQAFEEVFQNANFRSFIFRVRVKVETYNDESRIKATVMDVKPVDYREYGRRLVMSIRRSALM
Sequence of Replication protein A (RPA heterotrimer) (human) (P15927 whole entry, chain 2 of 3): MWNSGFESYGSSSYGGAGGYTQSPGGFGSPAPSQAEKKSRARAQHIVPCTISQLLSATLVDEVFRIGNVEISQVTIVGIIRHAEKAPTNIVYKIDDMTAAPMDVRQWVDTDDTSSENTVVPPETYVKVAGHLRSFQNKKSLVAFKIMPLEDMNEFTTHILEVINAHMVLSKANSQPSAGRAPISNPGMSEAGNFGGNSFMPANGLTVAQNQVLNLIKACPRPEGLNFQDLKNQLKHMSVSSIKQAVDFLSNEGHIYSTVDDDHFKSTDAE
Sequence of Replication protein A (RPA heterotrimer) (human) (P35244 whole entry, chain 3 of 3): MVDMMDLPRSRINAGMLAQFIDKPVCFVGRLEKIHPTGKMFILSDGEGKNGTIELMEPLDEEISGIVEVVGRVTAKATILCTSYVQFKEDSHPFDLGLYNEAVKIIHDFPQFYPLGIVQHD

Which results are given for pHSG299 supercoiled plasmid?
binding signal (scale: fold lower affinity than RNA 501): 500; binding signal (scale: fold lower affinity than ssDNA 211): 33000
